# Square brackets hold non-standard residues; d marks the D form. Tpi = O=C(O)[C@@H]1Cc2c([nH]c3ccccc23)CN1; Oic = O=C(O)[C@@H]1C[C@@H]2CCCC[C@@H]2N1; hArg = N=C(N)NCCCC[C@H](N)C(=O)O; Cit = NC(=O)NCCC[C@H](N)C(=O)O; Aib = CC(C)(N)C(=O)O
# B1: SEQ ID NO 673 (peptide)
# peptide: Ac-WVTH[Cit]LAGLLS[Cit]SGGVV[hArg]KNFVPTDVG[Tpi]FAF-NH2
# SMILES: CC(=O)N[C@@H](Cc1c[nH]c2ccccc12)C(=O)N[C@H](C(=O)N[C@H](C(=O)N[C@@H](Cc1c[nH]cn1)C(=O)N[C@@H](CCCNC(N)=O)C(=O)N[C@@H](CC(C)C)C(=O)N[C@@H](C)C(=O)NCC(=O)N[C@@H](CC(C)C)C(=O)N[C@@H](CC(C)C)C(=O)N[C@@H](CO)C(=O)N[C@@H](CCCNC(N)=O)C(=O)N[C@@H](CO)C(=O)NCC(=O)NCC(=O)N[C@H](C(=O)N[C@H](C(=O)N[C@@H](CCCCNC(=N)N)C(=O)N[C@@H](CCCCN)C(=O)N[C@@H](CC(N)=O)C(=O)N[C@@H](Cc1ccccc1)C(=O)N[C@H](C(=O)N1CCC[C@H]1C(=O)N[C@H](C(=O)N[C@@H](CC(=O)O)C(=O)N[C@H](C(=O)NCC(=O)N1Cc2[nH]c3ccccc3c2C[C@H]1C(=O)N[C@@H](Cc1ccccc1)C(=O)N[C@@H](C)C(=O)N[C@@H](Cc1ccccc1)C(N)=O)C(C)C)[C@@H](C)O)C(C)C)C(C)C)C(C)C)[C@@H](C)O)C(C)C
# B2: SEQ ID NO 659 (peptide)
# peptide: Ac-WVTH[Cit]LAGLLS[Cit]SGGVV[hArg]KNFVPTDVG[Oic]FA-NH2
# SMILES: CC(=O)N[C@@H](Cc1c[nH]c2ccccc12)C(=O)N[C@H](C(=O)N[C@H](C(=O)N[C@@H](Cc1c[nH]cn1)C(=O)N[C@@H](CCCNC(N)=O)C(=O)N[C@@H](CC(C)C)C(=O)N[C@@H](C)C(=O)NCC(=O)N[C@@H](CC(C)C)C(=O)N[C@@H](CC(C)C)C(=O)N[C@@H](CO)C(=O)N[C@@H](CCCNC(N)=O)C(=O)N[C@@H](CO)C(=O)NCC(=O)NCC(=O)N[C@H](C(=O)N[C@H](C(=O)N[C@@H](CCCCNC(=N)N)C(=O)N[C@@H](CCCCN)C(=O)N[C@@H](CC(N)=O)C(=O)N[C@@H](Cc1ccccc1)C(=O)N[C@H](C(=O)N1CCC[C@H]1C(=O)N[C@H](C(=O)N[C@@H](CC(=O)O)C(=O)N[C@H](C(=O)NCC(=O)N1[C@H](C(=O)N[C@@H](Cc2ccccc2)C(=O)N[C@@H](C)C(N)=O)C[C@@H]2CCCC[C@@H]21)C(C)C)[C@@H](C)O)C(C)C)C(C)C)C(C)C)[C@@H](C)O)C(C)C
# B3: SEQ ID NO 662 (peptide)
# peptide: Ac-LAGLLS[Cit]SGGVV[hArg]KNFVPTDVG[Oic]FAF-NH2
# SMILES: CC(=O)N[C@@H](CC(C)C)C(=O)N[C@@H](C)C(=O)NCC(=O)N[C@@H](CC(C)C)C(=O)N[C@@H](CC(C)C)C(=O)N[C@@H](CO)C(=O)N[C@@H](CCCNC(N)=O)C(=O)N[C@@H](CO)C(=O)NCC(=O)NCC(=O)N[C@H](C(=O)N[C@H](C(=O)N[C@@H](CCCCNC(=N)N)C(=O)N[C@@H](CCCCN)C(=O)N[C@@H](CC(N)=O)C(=O)N[C@@H](Cc1ccccc1)C(=O)N[C@H](C(=O)N1CCC[C@H]1C(=O)N[C@H](C(=O)N[C@@H](CC(=O)O)C(=O)N[C@H](C(=O)NCC(=O)N1[C@H](C(=O)N[C@@H](Cc2ccccc2)C(=O)N[C@@H](C)C(=O)N[C@@H](Cc2ccccc2)C(N)=O)C[C@@H]2CCCC[C@@H]21)C(C)C)[C@@H](C)O)C(C)C)C(C)C)C(C)C
# B4: SEQ ID NO 657 (peptide)
# peptide: Ac-[Cit]LAGLLS[Cit]SGGVV[hArg]KNFVPTDVGPFAF-NH2
# SMILES: CC(=O)N[C@@H](CCCNC(N)=O)C(=O)N[C@@H](CC(C)C)C(=O)N[C@@H](C)C(=O)NCC(=O)N[C@@H](CC(C)C)C(=O)N[C@@H](CC(C)C)C(=O)N[C@@H](CO)C(=O)N[C@@H](CCCNC(N)=O)C(=O)N[C@@H](CO)C(=O)NCC(=O)NCC(=O)N[C@H](C(=O)N[C@H](C(=O)N[C@@H](CCCCNC(=N)N)C(=O)N[C@@H](CCCCN)C(=O)N[C@@H](CC(N)=O)C(=O)N[C@@H](Cc1ccccc1)C(=O)N[C@H](C(=O)N1CCC[C@H]1C(=O)N[C@H](C(=O)N[C@@H](CC(=O)O)C(=O)N[C@H](C(=O)NCC(=O)N1CCC[C@H]1C(=O)N[C@@H](Cc1ccccc1)C(=O)N[C@@H](C)C(=O)N[C@@H](Cc1ccccc1)C(N)=O)C(C)C)[C@@H](C)O)C(C)C)C(C)C)C(C)C
# B5: SEQ ID NO 665 (peptide)
# peptide: Ac-WVTH[Cit]LAGLLS[Cit]SGGVV[Cit]KNFVPTDVG[Oic]KAF-NH2
# SMILES: CC(=O)N[C@@H](Cc1c[nH]c2ccccc12)C(=O)N[C@H](C(=O)N[C@H](C(=O)N[C@@H](Cc1c[nH]cn1)C(=O)N[C@@H](CCCNC(N)=O)C(=O)N[C@@H](CC(C)C)C(=O)N[C@@H](C)C(=O)NCC(=O)N[C@@H](CC(C)C)C(=O)N[C@@H](CC(C)C)C(=O)N[C@@H](CO)C(=O)N[C@@H](CCCNC(N)=O)C(=O)N[C@@H](CO)C(=O)NCC(=O)NCC(=O)N[C@H](C(=O)N[C@H](C(=O)N[C@@H](CCCNC(N)=O)C(=O)N[C@@H](CCCCN)C(=O)N[C@@H](CC(N)=O)C(=O)N[C@@H](Cc1ccccc1)C(=O)N[C@H](C(=O)N1CCC[C@H]1C(=O)N[C@H](C(=O)N[C@@H](CC(=O)O)C(=O)N[C@H](C(=O)NCC(=O)N1[C@H](C(=O)N[C@@H](CCCCN)C(=O)N[C@@H](C)C(=O)N[C@@H](Cc2ccccc2)C(N)=O)C[C@@H]2CCCC[C@@H]21)C(C)C)[C@@H](C)O)C(C)C)C(C)C)C(C)C)[C@@H](C)O)C(C)C
# B6: SEQ ID NO 660 (peptide)
# peptide: Ac-VTH[Cit]LAGLLS[Cit]SGGVV[hArg]KNFVPTDVG[Oic]FAF-NH2
# SMILES: CC(=O)N[C@H](C(=O)N[C@H](C(=O)N[C@@H](Cc1c[nH]cn1)C(=O)N[C@@H](CCCNC(N)=O)C(=O)N[C@@H](CC(C)C)C(=O)N[C@@H](C)C(=O)NCC(=O)N[C@@H](CC(C)C)C(=O)N[C@@H](CC(C)C)C(=O)N[C@@H](CO)C(=O)N[C@@H](CCCNC(N)=O)C(=O)N[C@@H](CO)C(=O)NCC(=O)NCC(=O)N[C@H](C(=O)N[C@H](C(=O)N[C@@H](CCCCNC(=N)N)C(=O)N[C@@H](CCCCN)C(=O)N[C@@H](CC(N)=O)C(=O)N[C@@H](Cc1ccccc1)C(=O)N[C@H](C(=O)N1CCC[C@H]1C(=O)N[C@H](C(=O)N[C@@H](CC(=O)O)C(=O)N[C@H](C(=O)NCC(=O)N1[C@H](C(=O)N[C@@H](Cc2ccccc2)C(=O)N[C@@H](C)C(=O)N[C@@H](Cc2ccccc2)C(N)=O)C[C@@H]2CCCC[C@@H]21)C(C)C)[C@@H](C)O)C(C)C)C(C)C)C(C)C)[C@@H](C)O)C(C)C
# Target: CGRP1 receptor (CRLR/RAMP1 complex) of human neuroblastoma SK-N-MC cells (human, UniProt Q16602 23-461; O60894 27-148)
# Sequence (Q16602 23-461, chain 1 of 2): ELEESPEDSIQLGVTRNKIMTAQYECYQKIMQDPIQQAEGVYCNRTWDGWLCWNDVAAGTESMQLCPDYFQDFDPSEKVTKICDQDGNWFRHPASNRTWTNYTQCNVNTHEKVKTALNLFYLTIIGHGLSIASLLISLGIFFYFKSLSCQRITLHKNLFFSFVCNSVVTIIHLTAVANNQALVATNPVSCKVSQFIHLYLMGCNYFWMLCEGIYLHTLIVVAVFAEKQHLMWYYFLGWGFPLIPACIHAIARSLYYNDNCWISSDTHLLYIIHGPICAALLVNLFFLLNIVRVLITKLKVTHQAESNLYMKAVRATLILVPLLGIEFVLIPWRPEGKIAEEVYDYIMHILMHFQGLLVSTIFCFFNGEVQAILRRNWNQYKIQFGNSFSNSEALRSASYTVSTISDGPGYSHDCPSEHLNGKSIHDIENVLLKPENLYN
# Sequence (O60894 27-148, chain 2 of 2): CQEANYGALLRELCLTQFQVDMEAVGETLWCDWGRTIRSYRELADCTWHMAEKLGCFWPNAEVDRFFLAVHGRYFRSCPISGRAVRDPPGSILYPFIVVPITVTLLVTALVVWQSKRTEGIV
# Assay: cell-based or functional assay
row,Binder,IC50 [nM]
1,Ac-WVTH[Cit]LAGLLS[Cit]SGGVV[hArg]KNFVPTDVG[Aib]FAF-NH2 [SEQ ID NO 670],4.37
2,B1,28.9
3,Ac-[Cit]LAGLLS[Cit]SGGVV[hArg]KNFVPTDVG[Oic]FAF-NH2 [SEQ ID NO 661],8.74
4,B2,> 1000
5,B3,16.5
6,B4,13
7,B5,3.77
8,WVTHXLAGLLSXSGGVVXKNFVPTDVGXFAF (AC-WVTH[Cit]LAGLLS[Cit]SGGVV[hArg]KNFVPTDVG[Pip]FAF-NH2) [SEQ ID NO 666],11.2
9,WVTHXLAGLLSXSGGVVXKNFVPTDVGXFAF (Ac-WVTH[Cit]LAGLLS[Cit]SGGVV[hArg]KNFVPTDVG[Hyp]FAF-NH2) [SEQ ID NO 667],6.62
10,WVTHXLAGLLSXSGGVVXKNFVPTDVGPXAF (Ac-WVTH[Cit]LAGLLS[Cit]SGGVV[hArg]KNFVPTDVGP[Tic]AF-NH2) [SEQ ID NO 131],89.9
11,WVTHXLAGLLSXSGGVVXKNFVPTDVGXFAF (AC-WVTH[Cit]LAGLLS[Cit]SGGVV[hArg]KNFVPTDVG[Hyp]FAF-NH2) [SEQ ID NO 668],6.01
12,WVTHXLAGLLSXSGGVVXKNFVPTDVGXXAF (Ac-WVTH[Cit]LAGLLS[Cit]SGGVV[hArg]KNFVPTDVG[Pip][1-Nal]AF-NH2) [SEQ ID NO 675],10.8
13,B6,3

# Source: patent US20080020978A1 (Amgen, published 2008)
